{"source": "the supplement of paper PMC10567573", "parents": {"B1": {"name": "FUT8 (parent)", "chain": "YAHQPRTADEIPMEPGDIIGVAGN"}}}
{"variants_of": "B1", "experiment": "protein stability index of a GFP-peptide fusion (GPS, HEK-293T) (PSI 1-6); higher = more stable", "conditions": "c terminus: a fixed tail appended"}
{"variant": "YAHQPRTAWEIPMEPGDIIGVAGN", "note": "[D9W]", "protein stability index": 2.16}
{"variant": "YAHQPRTAHEIPMEPGDIIGVAGN", "note": "[D9H]", "protein stability index": 3.67}
{"variant": "YAHQPRTASEIPMEPGDIIGVAGN", "note": "[D9S]", "protein stability index": 3.67}
{"variant": "YAHQPRTAQEIPMEPGDIIGVAGN", "note": "[D9Q]", "protein stability index": 3.74}
{"variant": "YHHQPRTADEIPMEPGDIIGVAGN", "note": "[A2H]", "protein stability index": 3.59}
{"variant": "YGHQPRTADEIPMEPGDIIGVAGN", "note": "[A2G]", "protein stability index": 4.69}
{"variant": "YWHQPRTADEIPMEPGDIIGVAGN", "note": "[A2W]", "protein stability index": 3.63}
{"variant": "YAHQPRTADEIPMEPGDIIGVAGY", "note": "[N24Y]", "protein stability index": 3.21}
{"variant": "YAHQPRTADEIPMEPGDIIGVAGI", "note": "[N24I]", "protein stability index": 2.93}
{"variant": "YAHQPRTADEIPMEPGDIIGVAGL", "note": "[N24L]", "protein stability index": 2.77}
{"variant": "YAHQPRTADEIPMEPGDIIGVAGF", "note": "[N24F]", "protein stability index": 2.46}
{"variant": "YAHQPRTADEIPMEPGDIIGVAGH", "note": "[N24H]", "protein stability index": 3.39}
{"variant": "YAHQPRTADEIPMEPGDIIGVAGG", "note": "[N24G]", "protein stability index": 3.43}
{"variant": "YAHQPRTADEIPMEPGDIIGVAGW", "note": "[N24W]", "protein stability index": 2.66}
{"variant": "YAHQPRTADEIPMEPGDIHGVAGN", "note": "[I19H]", "protein stability index": 4.02}
{"variant": "YAHQPRTADEIPMEPGDILGVAGN", "note": "[I19L]", "protein stability index": 3.65}
{"variant": "YAHQPRTADEIPMEPGDISGVAGN", "note": "[I19S]", "protein stability index": 4.55}
{"variant": "YAHQPRTADEIPMEPGDIWGVAGN", "note": "[I19W]", "protein stability index": 1.93}
{"variant": "YAHQPRTADEIPMEPGDITGVAGN", "note": "[I19T]", "protein stability index": 4.16}
{"variant": "YAHQPRTADEIPMEPGDIRGVAGN", "note": "[I19R]", "protein stability index": 4.4}
{"variant": "YAHQPRTADEIPMEPGDIDGVAGN", "note": "[I19D]", "protein stability index": 5.07}
{"variant": "YAHQPRTADEIPMEPGDIPGVAGN", "note": "[I19P]", "protein stability index": 4.61}
{"variant": "YAHQPRTADEIPMEPGDIIGVHGN", "note": "[A22H]", "protein stability index": 3.97}
{"variant": "YAHQPRTADEIPMEPGDIIGVSGN", "note": "[A22S]", "protein stability index": 3.92}
{"variant": "YAHQPRTADEIPMEPGDIIGVCGN", "note": "[A22C]", "protein stability index": 3.14}
{"variant": "YAHQPRTADEIPMEPGDIILVAGN", "note": "[G20L]", "protein stability index": 2.96}
{"variant": "YAHQPRTADEIPMEPGDIIMVAGN", "note": "[G20M]", "protein stability index": 4.11}
{"variant": "YAHQPRTADEIPMEPGDIIPVAGN", "note": "[G20P]", "protein stability index": 4.47}
{"variant": "YAHQPRTADEIPMEPGDIIGQAGN", "note": "[V21Q]", "protein stability index": 4.22}
{"variant": "YAHQPRTADEIPMEPGDIIGEAGN", "note": "[V21E]", "protein stability index": 4.62}
{"variant": "YAHQPRTADEIPMEPGDIIGGAGN", "note": "[V21G]", "protein stability index": 4.29}
{"variant": "AAHQPRTADEIPMEPGDIIGVAGN", "note": "[Y1A]", "protein stability index": 5.22}
{"variant": "SAHQPRTADEIPMEPGDIIGVAGN", "note": "[Y1S]", "protein stability index": 4.88}
{"variant": "WAHQPRTADEIPMEPGDIIGVAGN", "note": "[Y1W]", "protein stability index": 4.52}
{"variant": "GAHQPRTADEIPMEPGDIIGVAGN", "note": "[Y1G]", "protein stability index": 5.17}
{"variant": "YAHQPRTADEIPMEPGPIIGVAGN", "note": "[D17P]", "protein stability index": 3.14}
{"variant": "YAHQPRTADEIPMEPGFIIGVAGN", "note": "[D17F]", "protein stability index": 2.03}
{"variant": "YAHQPRTADEIPMEPGVIIGVAGN", "note": "[D17V]", "protein stability index": 2.87}
{"variant": "YAHQPRTADEIPMEPGMIIGVAGN", "note": "[D17M]", "protein stability index": 3.06}
{"variant": "YAHQPRTADEIPMEPGTIIGVAGN", "note": "[D17T]", "protein stability index": 3.38}
{"variant": "YAHQPRTADEITMEPGDIIGVAGN", "note": "[P12T]", "protein stability index": 4.09}
{"variant": "YAHQPRTADEIRMEPGDIIGVAGN", "note": "[P12R]", "protein stability index": 3.28}
{"variant": "YAHQPRTADEINMEPGDIIGVAGN", "note": "[P12N]", "protein stability index": 3.73}
{"variant": "YAHQPRTADEIAMEPGDIIGVAGN", "note": "[P12A]", "protein stability index": 4.23}
{"variant": "YAHQPRTADEIEMEPGDIIGVAGN", "note": "[P12E]", "protein stability index": 4.2}
{"variant": "YAHQPRTADEILMEPGDIIGVAGN", "note": "[P12L]", "protein stability index": 3.57}
{"variant": "YAHQPRTADEIPQEPGDIIGVAGN", "note": "[M13Q]", "protein stability index": 4.71}
{"variant": "YAHQPRTADEIPMEPPDIIGVAGN", "note": "[G16P]", "protein stability index": 4.1}
{"variant": "YAHQPRTADEIPMEPLDIIGVAGN", "note": "[G16L]", "protein stability index": 3.73}
{"variant": "YAHQPRPADEIPMEPGDIIGVAGN", "note": "[T7P]", "protein stability index": 3.97}
{"variant": "YAHQPRHADEIPMEPGDIIGVAGN", "note": "[T7H]", "protein stability index": 3.66}
{"variant": "YAHQPRYADEIPMEPGDIIGVAGN", "note": "[T7Y]", "protein stability index": 3.58}
{"variant": "YAHQARTADEIPMEPGDIIGVAGN", "note": "[P5A]", "protein stability index": 4.23}
{"variant": "YAHQDRTADEIPMEPGDIIGVAGN", "note": "[P5D]", "protein stability index": 4.93}
{"variant": "YAHQERTADEIPMEPGDIIGVAGN", "note": "[P5E]", "protein stability index": 4.62}
{"variant": "YAHQQRTADEIPMEPGDIIGVAGN", "note": "[P5Q]", "protein stability index": 4.12}
{"variant": "YAHQRRTADEIPMEPGDIIGVAGN", "note": "[P5R]", "protein stability index": 3.55}
{"variant": "YAHQPRTADEIPMTPGDIIGVAGN", "note": "[E14T]", "protein stability index": 3.9}
{"variant": "YAHQPRTADEIPMYPGDIIGVAGN", "note": "[E14Y]", "protein stability index": 2.27}
{"variant": "YAHQPRTADEIPMIPGDIIGVAGN", "note": "[E14I]", "protein stability index": 3.23}
{"variant": "YAHQPRTADEIPMLPGDIIGVAGN", "note": "[E14L]", "protein stability index": 2.88}
{"variant": "YAHQPRTADEIPMSPGDIIGVAGN", "note": "[E14S]", "protein stability index": 3.29}
{"variant": "YAHQPRTADEIPMDPGDIIGVAGN", "note": "[E14D]", "protein stability index": 3.75}
{"variant": "YAHQPDTADEIPMEPGDIIGVAGN", "note": "[R6D]", "protein stability index": 4.54}
{"variant": "YAHQPATADEIPMEPGDIIGVAGN", "note": "[R6A]", "protein stability index": 4.48}
{"variant": "YAHQPPTADEIPMEPGDIIGVAGN", "note": "[R6P]", "protein stability index": 4.78}
{"variant": "YAHQPRTADEHPMEPGDIIGVAGN", "note": "[I11H]", "protein stability index": 4.06}
{"variant": "YAHQPRTADERPMEPGDIIGVAGN", "note": "[I11R]", "protein stability index": 4.07}
{"variant": "YAHQPRTADEVPMEPGDIIGVAGN", "note": "[I11V]", "protein stability index": 4.55}
{"variant": "YAHQPRTADEDPMEPGDIIGVAGN", "note": "[I11D]", "protein stability index": 4.65}
{"variant": "YAHQPRTADEIPMENGDIIGVAGN", "note": "[P15N]", "protein stability index": 4.08}
{"variant": "YAHQPRTADEIPMEFGDIIGVAGN", "note": "[P15F]", "protein stability index": 3.52}
{"variant": "YAHQPRTADEIPMEYGDIIGVAGN", "note": "[P15Y]", "protein stability index": 3.31}
{"variant": "YAHIPRTADEIPMEPGDIIGVAGN", "note": "[Q4I]", "protein stability index": 3.54}
{"variant": "YAHFPRTADEIPMEPGDIIGVAGN", "note": "[Q4F]", "protein stability index": 2.77}
{"variant": "YAHNPRTADEIPMEPGDIIGVAGN", "note": "[Q4N]", "protein stability index": 4.07}
{"variant": "YAHKPRTADEIPMEPGDIIGVAGN", "note": "[Q4K]", "protein stability index": 2.85}
{"variant": "YAHLPRTADEIPMEPGDIIGVAGN", "note": "[Q4L]", "protein stability index": 4.26}
{"variant": "YAHSPRTADEIPMEPGDIIGVAGN", "note": "[Q4S]", "protein stability index": 3.8}
{"variant": "YAHYPRTADEIPMEPGDIIGVAGN", "note": "[Q4Y]", "protein stability index": 3.66}
{"variant": "YAHVPRTADEIPMEPGDIIGVAGN", "note": "[Q4V]", "protein stability index": 3.5}
{"variant": "YADQPRTADEIPMEPGDIIGVAGN", "note": "[H3D]", "protein stability index": 4.78}
{"variant": "YAEQPRTADEIPMEPGDIIGVAGN", "note": "[H3E]", "protein stability index": 4.87}
{"variant": "YANQPRTADEIPMEPGDIIGVAGN", "note": "[H3N]", "protein stability index": 4.43}
{"variant": "YAHQPRTADEIPMEPGDIIGVACN", "note": "[G23C]", "protein stability index": 3.12}
{"variant": "YAHQPRTADEIPMEPGDIIGVAMN", "note": "[G23M]", "protein stability index": 3.7}
{"variant": "YAHQPRTADEIPMEPGDIIGVARN", "note": "[G23R]", "protein stability index": 3.31}
{"variant": "YAHQPRTADEIPMEPGDFIGVAGN", "note": "[I18F]", "protein stability index": 3.55}
{"variant": "YAHQPRTADEIPMEPGDVIGVAGN", "note": "[I18V]", "protein stability index": 4.47}
{"variant": "YAHQPRTADEIPMEPGDRIGVAGN", "note": "[I18R]", "protein stability index": 4.45}
{"variant": "YAHQPRTADSIPMEPGDIIGVAGN", "note": "[E10S]", "protein stability index": 3.74}
{"variant": "YAHQPRTADVIPMEPGDIIGVAGN", "note": "[E10V]", "protein stability index": 3.37}
{"variant": "YAHQPRTADFIPMEPGDIIGVAGN", "note": "[E10F]", "protein stability index": 3.14}
{"variant": "YAHQPRTADGIPMEPGDIIGVAGN", "note": "[E10G]", "protein stability index": 2.53}
